# Source: PMC7851962
# B1: Arl4D^WT expressed in COS-7 cells (natural protein)
# chain: MGNHLTEMAPTASSFLPHFQALHVVVIGLDSAGKTSLLYRLKFKEFVQSVPTKGFNTEKIRVPLGGSRGITFQVWDVGGQEKLRPLWRSYTRRTDGLVFVVDAAEAERLEEAKVELHRISRASDNQGVPVLVLANKQDQPGALSAAEVEKRLAVRELAAATLTHVQGCSAVDGLGLQQGLERLYEMILKRKKAARGGKKRR
# Target: GFP-EB1-A7 (UniProt Q15691)
# Experiment: co-IP
# Chain of UniProt Q15691 (Q15691 whole entry): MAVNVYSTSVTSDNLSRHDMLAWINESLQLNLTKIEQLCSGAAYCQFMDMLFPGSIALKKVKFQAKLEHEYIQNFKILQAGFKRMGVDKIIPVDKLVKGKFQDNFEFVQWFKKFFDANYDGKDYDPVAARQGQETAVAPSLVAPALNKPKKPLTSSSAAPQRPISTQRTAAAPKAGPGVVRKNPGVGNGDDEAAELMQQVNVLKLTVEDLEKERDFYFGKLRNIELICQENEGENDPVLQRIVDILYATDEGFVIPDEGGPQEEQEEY
binder,measurement,value
B1,percent of the amount co-immunoprecipitated with WT EB1,50%
